From the supplement of paper PMC9112550, “Optimization of the antimicrobial peptide Bac7 by deep mutational scanning” (BMC Biology, 2022)

Tested on: Escherichia coli TOP10
Experiment: shrunken log2 fold change of peptide-encoding DNA abundance (4.5 h post-induction vs induction); higher = less antimicrobial activity (less host growth inhibition)
Settings: time post-induction: 4.5 h; library: site-saturation at positions 5, 18, 19, 20
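Also: peptides expressed intracellularly from a pBAD plasmid library in pooled LB shake-flask culture, induced with 0.3% L-arabinose, DNA abundance read by NGS, three biological replicates, DESeq2 with apeglm shrinkage.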

Sequence | shrunken log2 fold change
RRIRMRPPRLPRPRPRPSNWPRP | 0.225
RRIRERPPRLPRPRPRPVGQPRP | 0.129
RRIRVRPPRLPRPRPRPDKAPRP | -0.0129
RRIRWRPPRLPRPRPRPSKLPRP | -0.315
RRIRSRPPRLPRPRPRPWFSPRP | -0.544
RRIRLRPPRLPRPRPRPTPYPRP | -0.00235
RRIRRRPPRLPRPRPRPKARPRP | 0.277
RRIRRRPPRLPRPRPRPGLPPRP | 0.33
RRIRIRPPRLPRPRPRPSHPPRP | -0.245
RRIRNRPPRLPRPRPRPGDQPRP | 0.0802
RRIRWRPPRLPRPRPRPGHNPRP | 0.31
RRIRERPPRLPRPRPRPSKTPRP | -0.0833
RRIRKRPPRLPRPRPRPMEIPRP | 0.155
RRIRTRPPRLPRPRPRPGYLPRP | 0.0359
RRIRVRPPRLPRPRPRPWIEPRP | -0.104
RRIRARPPRLPRPRPRPVNVPRP | -0.169
RRIRYRPPRLPRPRPRPFWCPRP | -0.208
RRIRVRPPRLPRPRPRPCEGPRP | -0.0149
RRIRQRPPRLPRPRPRPTFAPRP | 0.209
RRIRQRPPRLPRPRPRPQEIPRP | 0.0292
RRIRSRPPRLPRPRPRPQDTPRP | -0.265
RRIRFRPPRLPRPRPRPYLAPRP | -0.425
RRIRARPPRLPRPRPRPRTPPRP | 0.636
RRIRKRPPRLPRPRPRPFWKPRP | 0.0342
RRIRARPPRLPRPRPRPTHPPRP | 0.586

Sequence | shrunken log2 fold change
RRIRMRPPRLPRPRPRPPEMPRP | 0.329
RRIRRRPPRLPRPRPRPHKWPRP | 2.57
RRIRDRPPRLPRPRPRPNNGPRP | -0.0483
RRIRGRPPRLPRPRPRPKWMPRP | 0.58
RRIRQRPPRLPRPRPRPLNKPRP | -0.503
RRIRWRPPRLPRPRPRPYCIPRP | -0.179
RRIRWRPPRLPRPRPRPFFGPRP | 0.352
RRIRLRPPRLPRPRPRPDEVPRP | 0.256
RRIRPRPPRLPRPRPRPDDMPRP | 0.0244
RRIRQRPPRLPRPRPRPVLSPRP | -0.0147
RRIRKRPPRLPRPRPRPSWCPRP | -0.152
RRIRMRPPRLPRPRPRPNFWPRP | 0.294
RRIRSRPPRLPRPRPRPAMSPRP | -0.0932
RRIRFRPPRLPRPRPRPEEQPRP | 0.162
RRIRSRPPRLPRPRPRPDQIPRP | 0.0424
RRIRPRPPRLPRPRPRPYELPRP | -0.0423
RRIRKRPPRLPRPRPRPDGQPRP | 0.0566
RRIRCRPPRLPRPRPRPFPIPRP | -0.305
RRIRLRPPRLPRPRPRPVILPRP | -1
RRIRNRPPRLPRPRPRPEEEPRP | -0.00134
RRIRIRPPRLPRPRPRPQVCPRP | 0.0108
RRIRHRPPRLPRPRPRPPNWPRP | 0.494
RRIRCRPPRLPRPRPRPPKYPRP | -0.291
RRIRVRPPRLPRPRPRPFHIPRP | -0.527
RRIRLRPPRLPRPRPRPIECPRP | 0.0614

Sequence | shrunken log2 fold change
RRIRERPPRLPRPRPRPWRYPRP | -0.176
RRIRGRPPRLPRPRPRPHFDPRP | 0.469
RRIRFRPPRLPRPRPRPVPTPRP | 0.113
RRIRSRPPRLPRPRPRPHLWPRP | -0.0232
RRIRKRPPRLPRPRPRPLDGPRP | 0.105
RRIRKRPPRLPRPRPRPQAKPRP | -0.00692
RRIRRRPPRLPRPRPRPPESPRP | 0.26
RRIRIRPPRLPRPRPRPYVSPRP | -0.518
RRIRARPPRLPRPRPRPNKGPRP | -0.0254
RRIRCRPPRLPRPRPRPFYAPRP | -0.813
RRIRRRPPRLPRPRPRPVTRPRP | 0.169
RRIRCRPPRLPRPRPRPLLKPRP | -0.185
RRIRHRPPRLPRPRPRPDTQPRP | 0.047
RRIRTRPPRLPRPRPRPNWHPRP | -0.0773
RRIRIRPPRLPRPRPRPLLLPRP | -0.597
RRIRVRPPRLPRPRPRPRINPRP | -0.07
RRIRGRPPRLPRPRPRPVRVPRP | 0.856
RRIRYRPPRLPRPRPRPKGMPRP | -0.111
RRIRGRPPRLPRPRPRPLHHPRP | 0.452
RRIRCRPPRLPRPRPRPLDGPRP | -0.151
RRIRHRPPRLPRPRPRPMLYPRP | -1.49
RRIRFRPPRLPRPRPRPLTPPRP | 0.0478
RRIRPRPPRLPRPRPRPNSTPRP | -0.23
RRIRSRPPRLPRPRPRPGHKPRP | -0.112
RRIRLRPPRLPRPRPRPTQYPRP | -0.696

Sequence | shrunken log2 fold change
RRIRLRPPRLPRPRPRPCLFPRP | -0.0955
RRIRWRPPRLPRPRPRPTNAPRP | 0.0747
RRIRGRPPRLPRPRPRPHSVPRP | -0.0536
RRIRPRPPRLPRPRPRPCFHPRP | -0.202
RRIRNRPPRLPRPRPRPLLKPRP | -0.539
RRIRGRPPRLPRPRPRPSSMPRP | -0.0636
RRIRWRPPRLPRPRPRPAAHPRP | 0.167
RRIRGRPPRLPRPRPRPQAEPRP | 1.08
RRIRSRPPRLPRPRPRPQHMPRP | -0.336
RRIRWRPPRLPRPRPRPVMCPRP | -0.0922
RRIRDRPPRLPRPRPRPTVWPRP | 0.527
RRIRARPPRLPRPRPRPRKGPRP | 0.365
RRIRHRPPRLPRPRPRPKPAPRP | 0.0168
RRIRCRPPRLPRPRPRPTQDPRP | 0.805
RRIRHRPPRLPRPRPRPTVAPRP | 0.325
RRIRWRPPRLPRPRPRPWFKPRP | -0.123
RRIRIRPPRLPRPRPRPYCLPRP | -0.259
RRIRMRPPRLPRPRPRPNISPRP | -0.29
RRIRERPPRLPRPRPRPVDGPRP | 0.222
RRIRRRPPRLPRPRPRPWIEPRP | -0.0568
RRIRDRPPRLPRPRPRPPWLPRP | 0.296
RRIRFRPPRLPRPRPRPHADPRP | 0.0798
RRIRCRPPRLPRPRPRPEMSPRP | -0.129
RRIRYRPPRLPRPRPRPSHLPRP | -0.286
RRIRNRPPRLPRPRPRPFFVPRP | 0.126

Sequence | shrunken log2 fold change
RRIRARPPRLPRPRPRPPQCPRP | 0.585
RRIRSRPPRLPRPRPRPLRYPRP | 0.166
RRIRMRPPRLPRPRPRPNSSPRP | -0.1
RRIRPRPPRLPRPRPRPQTHPRP | -0.272
RRIRSRPPRLPRPRPRPINQPRP | -0.657
RRIRWRPPRLPRPRPRPQPPPRP | 0.603
RRIRPRPPRLPRPRPRPHFMPRP | -0.231
RRIRGRPPRLPRPRPRPYHIPRP | 0.158
RRIRTRPPRLPRPRPRPRDLPRP | 0.064
RRIRARPPRLPRPRPRPIDKPRP | 0.236
RRIRERPPRLPRPRPRPHPWPRP | -0.392
RRIRKRPPRLPRPRPRPLDKPRP | -0.0705
RRIRMRPPRLPRPRPRPDGGPRP | 0.135
RRIRMRPPRLPRPRPRPPLGPRP | 1.08
RRIRSRPPRLPRPRPRPTQFPRP | 0.212
RRIRGRPPRLPRPRPRPWGMPRP | 0.0572
RRIRRRPPRLPRPRPRPAWSPRP | 0.321
RRIRFRPPRLPRPRPRPSASPRP | 0.0552
RRIRCRPPRLPRPRPRPAHLPRP | -0.104
RRIRVRPPRLPRPRPRPCNAPRP | -0.184
RRIRMRPPRLPRPRPRPFLIPRP | -0.34
RRIRLRPPRLPRPRPRPQFDPRP | -0.293
RRIRERPPRLPRPRPRPWHSPRP | -0.252
RRIRIRPPRLPRPRPRPKTIPRP | -0.25
RRIRSRPPRLPRPRPRPIEKPRP | -0.0173
